Results taken from US20210147541A1 (Kyowa Kirin, published 2021).
Where two headings read alike, the source gives them in different places.

T1: mouse CADM3 (mouse, UniProt Q99N28 23-396)
T1 construct: Full-length gene expressed transiently on Expi293F cells; also called mouse CADM3/Expi293F cells; Mouse CADM3-expressing cells
T1 sequence: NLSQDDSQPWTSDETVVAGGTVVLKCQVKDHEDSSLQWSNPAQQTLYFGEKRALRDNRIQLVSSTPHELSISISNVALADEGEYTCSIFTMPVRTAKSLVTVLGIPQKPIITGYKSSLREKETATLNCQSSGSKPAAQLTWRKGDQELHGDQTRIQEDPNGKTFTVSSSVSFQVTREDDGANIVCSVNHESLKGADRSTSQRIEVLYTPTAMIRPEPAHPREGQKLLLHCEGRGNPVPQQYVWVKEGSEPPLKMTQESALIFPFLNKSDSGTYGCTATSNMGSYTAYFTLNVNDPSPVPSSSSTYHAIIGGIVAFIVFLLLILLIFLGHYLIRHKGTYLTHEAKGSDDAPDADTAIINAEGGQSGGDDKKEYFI

T2: human CADM3 (human, UniProt Q8N126 25-398)
T2 construct: Full-length gene expressed transiently on Expi293F cells; also called cell adhesion molecule 3; human CADM3/Expi293F cells
T2 sequence: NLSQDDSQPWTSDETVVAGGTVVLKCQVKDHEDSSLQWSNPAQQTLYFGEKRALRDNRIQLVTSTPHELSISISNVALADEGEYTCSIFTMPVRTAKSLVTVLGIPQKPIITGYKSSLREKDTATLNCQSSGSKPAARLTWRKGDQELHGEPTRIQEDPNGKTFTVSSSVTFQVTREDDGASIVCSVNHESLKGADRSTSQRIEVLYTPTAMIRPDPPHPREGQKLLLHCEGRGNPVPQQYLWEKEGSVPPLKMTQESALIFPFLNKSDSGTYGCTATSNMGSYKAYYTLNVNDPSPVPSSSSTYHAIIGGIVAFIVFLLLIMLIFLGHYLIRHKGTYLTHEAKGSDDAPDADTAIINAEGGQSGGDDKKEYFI


Experiments:
hCADM3-GST [1] = molecular target: T3, hCADM3-GST (human); experiment: phage ELISA, hCADM3-GST immobilized
T3 construct: also called extracellular domain of human CADM3 to which GST was added at the C-terminal side; human CADM3-GST
Protocol: (§1) In the ELISA, hCADM3-GST and mCADM3-GST were immobilized (50 ng/50 μL) on MAXISORP (manufactured by NUNC, Inc.), followed by blocking using 0.5% BSA. To each well, each phage clone was added and allowed to react at room temperature for 1 hour, and thereafter, each well was washed 5 times with PBS-T. Subsequently, a biotinylated anti-M13 phage antibody (manufactured by Abcam plc) and horseradish peroxidase-labeled streptavidin (manufactured by Vector Co., Ltd.) were added to each well in an amount of 50 μL, followed by incubation at room temperature for 1 hour.
(§2) After the microplate was washed with PBS-T, a 3,3′,5,5′-tetramethylbenzidine (TMB) chromogenic substrate solution (manufactured by Calbiochem, Inc.) was added to each well, followed by incubation at room temperature. The coloring reaction was stopped by adding a 1 mol/L hydrochloric acid to each well, and an absorbance at a wavelength of 450 nm (reference wavelength: 570 nm) was measured using a microplate reader.

mCADM3-GST [2] = molecular target: T4, mCADM3-GST (mouse); experiment: phage ELISA, mCADM3-GST immobilized
T4 construct: also called extracellular domain of mouse CADM3 to which GST was added at the C-terminal side; mouse CADM3-GST
Protocol: as §1, §2

mouse CADM3 [3] = molecular target: T1, mouse CADM3; experiment: flow cytometry, mouse CADM3/Expi293F vs parent Expi293F cells
mouse CADM3 [4] = molecular target: T1, mouse CADM3; experiment: flow cytometry, 10 ug/mL, mouse CADM3/Expi293F vs parent Expi293F cells
mouse CADM3 [5] = molecular target: T1, mouse CADM3; experiment: as above; remark: listed apart in the source
Protocol: (§3) After washing with SB, the cells were suspended in SB, and the fluorescence intensity of each cell was measured using a flow cytometer FACS CANTO II (manufactured by Becton, Dickinson and Company). Note that as a negative control, 10 μg/mL of the anti-AVM antibody was used.
(§4) The detection results were analyzed, and a mean fluorescence intensity (MFI) was calculated using a geometric mean. Further, with respect to the MFI when the concentration of each antibody was 10 μg/mL, the ratio of the MFI (mean fluorescence intensity ratio) between the human CADM3/Expi293F cells and the Expi293F cells (parent cell line) was calculated.
Further, also with respect to AVM IgG4PE(R409K)_iCADM3_3R1-L5 dVHH, AVM IgG4PE(R409K)_iCADM3_3R1-L8 dVHH, AVM IgG4PE(R409K)_iCADM3_3R1-L10 dVHH, and AVM IgG4PE(R409K)_iCADM3_3R1-L11 dVHH, reactivity with the Expi293F cells, the human CADM3/Expi293F cells, and the mouse CADM3/Expi293F cells was analyzed by the same procedure, and the results are shown in Table 5.

mouse CADM3 [6] = molecular target: T1, mouse CADM3; experiment: as above; remark: listed apart in the source
Protocol: as §3, §4
(§5) With respect to the produced humanized anti-CADM3 VHH-Fc antibodies, reactivity with Expi293F cells, human CADM3/Expi293F cells, and mouse CADM3/Expi293F cells was analyzed by the same procedure as in Example 3.

mouse CADM3 [7] = molecular target: T1, mouse CADM3; experiment: as above; remark: listed apart in the source
Protocol: as §3, §4, §5

hCADM3-GST [8] = molecular target: T3, hCADM3-GST; experiment: SPR (Biacore T-100), antibody captured, hCADM3-GST as analyte
Protocol: (§6) The affinity of the anti-CADM3 antibodies produced in Example 2 for human CADM3 and mouse CADM3 was measured using Biacore T-100 (GE Healthcare). Each of the antibodies was immobilized on a […] sensor chip using a Human antibody Capture kit, and the binding ability was evaluated using hCADM3-GST and mCADM3-GST produced in Example 4 as analytes.
(§7) With respect to the produced humanized anti-CADM3 antibodies, affinity for CADM3 by surface plasmon resonance detection was evaluated by the same procedure as in Example 6.

mCADM3-GST [9] = molecular target: T4, mCADM3-GST; experiment: SPR (Biacore T-100), antibody captured, mCADM3-GST as analyte
Protocol: as §6, §7

human CADM3 = molecular target: T2, human CADM3; experiment: flow cytometry, 10 ug/mL, human CADM3/Expi293F vs parent Expi293F cells
Protocol: as §3, §4, §5

Binder | binding result (hCADM3-GST [1]) | binding result (mCADM3-GST [2]) | Mean fluorescence intensity ratio (mouse CADM3 [6]) | Kd (hCADM3-GST [8]) | koff (hCADM3-GST [8]) | kon (hCADM3-GST [8]) | Kd (mCADM3-GST [9]) | koff (mCADM3-GST [9]) | kon (mCADM3-GST [9]) | Mean fluorescence intensity ratio (human CADM3) | also measured
iCADM3_3R1-L5 (VHH, also called iCADM3-3R1-L5 antibody; anti-CADM3 VHH antibody (phage clone)) VHH: QVQLVESGGGLVQAGGSLRLSCAASGSIVSVNAMGWYRQAPGKQRELVATITSGGSTNYADSAKGRFTISRDNAKNTMYLQMNSLKPEDTAVYYCNGEFWSRRDTRPPGVVNYWGQGTQVTVSS | binds | binds | – | – | – | – | – | – | – | – | –
anti-AVM antibody (antibody, V domains shown, Negative control; also called chimeric anti-Avermectin (AVM) antibody; anti-AVM-IgG4 antibody) VH: EVQLVESGGGLVQPGRSLKLSCAASGFTFSNYAMAWVRRAPTKGLEWVASISNGGGNTYYRDSVKGRFTISRDDAKNTLYLQMDSLRSEDTATYYCARHGNYIYYGSFFDYWGQGVMVTVSS VL: QFVLSQPNSVSTNLGSTVKLSCKRSTGNIGSNYVSWYQQHEGRSPTTMIYRDDKRPDGVPDRFSGSIDRSSDSALLTINNVQTEDEADYFCQSYSSGINIFGGGTKLTVLG | – | – | 1.02 | – | – | – | – | – | – | – | binding result (mouse CADM3 [3]): no binding (tested: 10 ug/mL); Mean fluorescence intensity ratio (mouse CADM3 [4]): 1.07; Mean fluorescence intensity ratio (mouse CADM3 [5]): 1.15; Mean fluorescence intensity ratio (mouse CADM3 [7]): 1.02
iCADM3_3R1-L8_04 VHH-hG4PE(R409K) (Fc fusion, also called iCADM3-3R1-L8_04 humanized antibody; not shown: Hinge-CH2-CH3 region of the human IgG4 heavy chain constant region (IgG4 variant)) QVQLVESGGGLVQPGGSLRLSCAASGRTFSNYARGWFRQAPGKEREFVAAIDYSGGSTNYADSAKGRFTISRDNSKNTVYLQMNSLRAEDTAVYYCAAPASRRPSWDADGYDYWGQGTLVTVSS | – | – | 9.62 | 5.34 nM | 0.00078 s⁻¹ | 150000 M⁻¹ s⁻¹ | 5.22 nM | 0.00064 s⁻¹ | 120000 M⁻¹ s⁻¹ | 6.2 | –
iCADM3_3R1-L8_03 VHH-hG4PE(R409K) (Fc fusion, also called iCADM3-3R1-L8_03 humanized antibody; not shown: Hinge-CH2-CH3 region of the human IgG4 heavy chain constant region (IgG4 variant)) QVQLVESGGGLVQPGGSLRLSCAASGRTFSNYARGWFRQAPGKGREFVAAIDYSGGSTNYADSAKGRFTISRDNSKNTVYLQMNSLRAEDTAVYYCAAPASRRPSWDADGYDYWGQGTLVTVSS | – | – | 8.54 | 10.3 nM | 0.0019 s⁻¹ | 190000 M⁻¹ s⁻¹ | 7.38 nM | 0.0011 s⁻¹ | 150000 M⁻¹ s⁻¹ | 5.65 | –
iCADM3_3R1-L10 (VHH, also called iCADM3-3R1-L10 antibody; anti-CADM3 VHH antibody (phage clone)) VHH: QVQLVESGGGLVQAGGSLRLSCAASGSIFSIHAMGWYRQAPGKQRELVATVTSGGSTNYADSVKGRFTISRDNAKNTVYLQMNSLKPEDTAVYYCNAETPYYSSTYYTNYWGQGTQVTVSS | binds | binds | – | – | – | – | – | – | – | – | –
iCADM3_3R1-L11 (VHH, also called iCADM3-3R1-L11 antibody; anti-CADM3 VHH antibody (phage clone)) VHH: QVQLVESGGGLVQAGGSLRLSCAASGSIFSFNAMGWYRQAPGKQRGLVAVITSGGYTNYADSVKGRFTITRDNAKNTVYLQMNSLKPEDTAVYYCNAEGVYSDYVIMNYWGQGTQVTVSS | binds | binds | – | – | – | – | – | – | – | – | –
